From PMC9604149, “Evolution of the vls Antigenic Variability Locus of the Lyme Disease Pathogen and Development of Recombinant Monoclonal Antibodies Targeting Conserved VlsE Epitopes” (Microbiology Spectrum, 2022)
Where a chain is given by its changes, count along the chain named.

B1: recombinant monoclonal antibody 1D11-4 (antibody, V domains shown)
VH: QSLVESGGGLVQPEGSLTLTCKASGFSFSSGYDMCWVRQAPGKGLEYIACIDAGDDITHYASWVKGRFTVSKTSSTTVTLQLNSLTVADTATYFCGRFWDLWGPGTLVTVSS
VL: SSVLTQTPSPVSAAVGGTVTINCQSSQSVYDSTWLGWYQQKPGQPPKLLIYKASNLASGVPSRFKGSGSGTHFTLTISDLECDDAATYYCVGGYSGSVDNWAFGGGTEVVVK
notes: the antibody was detected with an anti-rabbit IgG secondary antibody; Only the variable regions are printed; also called anti-IR6 rMAb; source: made by GenScript
B2: recombinant monoclonal antibody 15E2-1 (antibody, V domains shown)
VH: QSLEESGGGLFKPTDTLTLTCTVSGIDLSSYAMIWVRQAPGKGLEWIGYIWSSGRIWYASWAKGRFTISRTSTTVDLKLASPTTEDTATYFCARLWDIWGPGTLVTVSS
VL: AQVLTQTPSSVSAAVGGTVTISCQASQSLYNGVNLAWYQQKPGQPPKLLIFGASNLESGVSSRFRGSGSGTQFTLTISGVQCDDAATYYCLGEFSCSSADCLAFGGGTEVVVK
notes: the antibody was detected with an anti-rabbit IgG secondary antibody; Only the variable regions are printed; also called anti-IR4 rMAb; source: made by GenScript
B3: recombinant monoclonal antibody 17A8-1 (antibody, V domains shown)
VH: QSVEESGGRLVTPGTPLTLTCTVSGFPLSSYSMAWVRQAPGKGLEYIGFINTDGSAYYASWAKGRITISKTSTTVELKITSPTTEDTATYFCGTGNIWGPGTLVTVSS
VL: AQVLTQTPSSVSAAVGGTVTINCQASQSVSNNNVLAWFQQKPGQPPKRLIYSALTLDSGVPSRFKGSGSGTHFTLTISGVQCDDAATYYCAGGYDCSSNDCIAFGGGTEVVVK
notes: as for B2
B4: recombinant monoclonal antibody 28D3-1 (antibody, V domains shown)
VH: B3 VH with P27S, A34G, F49M, N51I, T52S, D53N, G54N, A56T
VL: B3 VL with S9A, V29T, V34A, A103T
notes: as for B2
B5: antibody in the supernatant of rabbit B cell line 1D11 (antibody, V domains shown)
VH: B1 VH
VL: B1 VL
notes: Unpurified antibody of the cell line; also called anti-IR6 1D11 cell line
B6: antibody in the supernatant of rabbit B cell line 15E2 (antibody, V domains shown)
VH: B2 VH
VL: B2 VL
notes: Unpurified antibody of the cell line
B7: antibody in the supernatant of rabbit B cell line 17A8 (antibody, V domains shown)
VH: B3 VH
VL: B3 VL
notes: as for B6
B8: antibody in the supernatant of rabbit B cell line 28D3 (antibody, V domains shown)
VH: B3 VH with P27S, A34G, F49M, N51I, T52S, D53N, G54N, A56T
VL: B3 VL with S9A, V29T, V34A, A103T
notes: as for B6

target: T1, recombinant VlsE protein (of strain B31) (Borreliella burgdorferi B31 (clone …, UniProt O06878)); experiment: ELISA; validation of the specificity of the purified rMAbs: antigen (IR peptide or VlsE) fixed on the plate; dilution not told; conditions: both partners purified
T1 construct: VlsE of B. burgdorferi B31, clone B31-5A3: the 585-bp vlsE cassette region (including the IR1 through VR6 regions), codon-optimized; 585 bp would encode about 195 residues; also called recombinant B31 VlsE; vlsE cassette; source: E. coli BL21 (pET24), purified (Ni-NTA); estimated purity ~65%

Row | Binder | binding result
1 | B1 | binds
2 | B2 | binds
3 | B3 | binds
4 | B4 | binds

target: T1, recombinant VlsE protein (of strain B31); experiment: ELISA; antigen (IR peptide or recombinant VlsE) coated on a 96-well plate at 10 ug/mL overnight at 4 C, blocked with 5% milk; supernatants of rabbit B cell lines applied; HRP anti-rabbit IgG secondary 1:30,000; OD450; reactive if more than 3 SD above the mean BSA reactivity; conditions: one partner purified

Row | Binder | binding result
5 | B5 | binds
6 | B6 | binds
7 | B7 | binds
8 | B8 | binds
